Data from article PMC4628001, “Hybrid PET/optical imaging of integrin αVβ3 receptor expression using a ^64Cu-labeled streptavidin/biotin-based dimeric RGD peptide” (EJNMMI Research, 2015).

Target: T1, integrin αVβ3 (Homo sapiens, UniProt P05106+P06756)
T1 construct: U87MG cells, which are known to express high levels of integrin αVβ3; endogenous in cells; host or cells: U87MG cells
Assay: Cell integrin receptor binding, U87MG cells, ^125I-RGDyK radioligand
Conditions: displacement of ^125I-RGDyK, room temperature 1 h, pH 7.4 binding buffer, n = 3
Procedure: The integrin αVβ3 receptor binding study was performed using a previously reported procedure with a slight modification. ^125I-RGDyK was used as the radioligand and prepared immediately before use. […] All experiments were performed in triplicate. IC50 values were determined using GraphPad Prism software 5.

T1 sequence (P06756 31-889 limits assumed): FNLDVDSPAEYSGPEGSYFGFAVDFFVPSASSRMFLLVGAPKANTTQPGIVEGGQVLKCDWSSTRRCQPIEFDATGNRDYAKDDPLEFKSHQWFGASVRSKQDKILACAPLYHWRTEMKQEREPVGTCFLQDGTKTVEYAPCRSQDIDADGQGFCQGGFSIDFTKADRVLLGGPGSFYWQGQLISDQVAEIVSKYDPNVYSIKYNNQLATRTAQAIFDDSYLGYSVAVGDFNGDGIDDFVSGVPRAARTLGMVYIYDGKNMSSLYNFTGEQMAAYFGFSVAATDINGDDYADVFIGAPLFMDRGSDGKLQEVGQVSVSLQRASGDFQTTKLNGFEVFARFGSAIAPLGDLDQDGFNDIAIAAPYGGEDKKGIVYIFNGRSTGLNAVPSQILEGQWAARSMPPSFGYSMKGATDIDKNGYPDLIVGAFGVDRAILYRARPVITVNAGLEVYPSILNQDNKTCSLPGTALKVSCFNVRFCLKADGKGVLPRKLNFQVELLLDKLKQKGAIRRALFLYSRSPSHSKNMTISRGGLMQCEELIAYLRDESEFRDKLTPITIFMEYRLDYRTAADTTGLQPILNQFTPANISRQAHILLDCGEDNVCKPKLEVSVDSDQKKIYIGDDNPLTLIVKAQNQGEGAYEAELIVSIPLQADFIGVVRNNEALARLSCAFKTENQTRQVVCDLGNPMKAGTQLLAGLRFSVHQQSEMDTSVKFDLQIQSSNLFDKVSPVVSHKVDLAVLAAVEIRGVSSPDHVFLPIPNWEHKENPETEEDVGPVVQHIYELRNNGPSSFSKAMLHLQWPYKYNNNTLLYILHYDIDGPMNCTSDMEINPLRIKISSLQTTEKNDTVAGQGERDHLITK
T1 sequence (P06756 891-1048 partner limits assumed): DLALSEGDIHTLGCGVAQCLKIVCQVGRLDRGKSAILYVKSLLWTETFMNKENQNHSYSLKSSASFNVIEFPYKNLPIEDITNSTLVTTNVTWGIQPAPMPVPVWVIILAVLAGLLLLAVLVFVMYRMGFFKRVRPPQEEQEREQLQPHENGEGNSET
T1 sequence (P05106 27-788): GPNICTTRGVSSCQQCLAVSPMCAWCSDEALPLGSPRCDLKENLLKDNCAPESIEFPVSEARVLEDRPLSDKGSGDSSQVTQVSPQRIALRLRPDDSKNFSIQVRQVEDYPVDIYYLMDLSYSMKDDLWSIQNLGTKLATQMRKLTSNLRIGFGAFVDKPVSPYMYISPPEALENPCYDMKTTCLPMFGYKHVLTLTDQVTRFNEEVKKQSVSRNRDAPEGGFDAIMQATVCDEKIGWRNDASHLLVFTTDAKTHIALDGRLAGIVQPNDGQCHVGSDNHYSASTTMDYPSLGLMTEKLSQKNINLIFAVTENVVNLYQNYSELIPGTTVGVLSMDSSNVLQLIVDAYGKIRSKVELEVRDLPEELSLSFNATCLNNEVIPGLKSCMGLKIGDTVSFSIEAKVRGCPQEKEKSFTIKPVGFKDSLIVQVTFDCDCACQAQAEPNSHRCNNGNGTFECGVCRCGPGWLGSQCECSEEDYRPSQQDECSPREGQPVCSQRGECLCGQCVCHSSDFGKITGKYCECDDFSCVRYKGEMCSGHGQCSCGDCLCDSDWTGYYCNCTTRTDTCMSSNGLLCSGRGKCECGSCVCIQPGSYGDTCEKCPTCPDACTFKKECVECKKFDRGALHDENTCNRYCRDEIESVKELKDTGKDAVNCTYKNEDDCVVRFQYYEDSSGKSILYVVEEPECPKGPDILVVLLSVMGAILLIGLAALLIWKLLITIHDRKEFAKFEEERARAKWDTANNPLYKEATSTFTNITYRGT

Question: For “DOTA-(AF)SAv/biotin-PEG-RGD2: unlabeled complex comprising DOTA-(AF)SAv and biotin-PEG-RGD2”, which IC50 is on record?
Answer: The IC50 was 12.1 ± 4.2 nM.
